The results in this text go back to publication PMC10636138.

The target in the test is SARS-CoV-2 B.1 (Wuhan) RBD. In words: BLI. On the technique in general: BLI is a label-free optical method that tracks binding on a fibre tip over time.

pKd: −log10 of the molar value.

The pKd is the Kd on a negative log10 scale, so that one unit is a factor of ten. Read a high pKd as a small Kd.

Regarding CR3022, the pKd was 7.66.
